The values below come from patent US10428140B2, “Anti-EphA4 antibody” (EISAI R&D MANAGEMENT CO., LTD., priority 2015, dated 2019).

Assay [1] addresses T1, human EphA6 (Homo sapiens, UniProt Q9UF33).
T1 construct: a protein of the extracellular region of each human Eph receptor fused with the SEAP protein and the His tag; made in house; host or cells: Expi293F cells (culture supernatant)
T1 sequence (Q9UF33 23-550 limits assumed): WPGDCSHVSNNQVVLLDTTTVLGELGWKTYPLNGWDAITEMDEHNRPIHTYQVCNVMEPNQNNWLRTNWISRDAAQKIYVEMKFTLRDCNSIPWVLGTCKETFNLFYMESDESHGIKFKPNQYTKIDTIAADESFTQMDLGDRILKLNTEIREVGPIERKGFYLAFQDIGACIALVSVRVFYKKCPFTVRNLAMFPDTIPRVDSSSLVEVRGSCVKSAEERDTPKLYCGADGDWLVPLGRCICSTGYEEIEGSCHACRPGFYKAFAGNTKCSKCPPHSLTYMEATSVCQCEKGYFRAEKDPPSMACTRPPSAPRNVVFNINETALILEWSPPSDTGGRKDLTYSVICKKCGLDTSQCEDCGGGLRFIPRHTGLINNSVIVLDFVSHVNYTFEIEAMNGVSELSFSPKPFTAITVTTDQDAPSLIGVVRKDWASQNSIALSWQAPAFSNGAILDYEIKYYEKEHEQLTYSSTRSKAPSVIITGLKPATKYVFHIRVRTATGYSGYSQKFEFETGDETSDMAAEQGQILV
Kind of assay: Selectivity ELISA of humanized antibodies for human Eph receptor. Type of assay: binding. As to conditions: coated protein 1 nM. The source says: (§1) According to the method described in Example 7, a DNA sequence encoding the signal sequence and the extracellular region of each human Eph receptor (EphA1, EphA2, EphA3, EphA4, EphA5, EphA6, EphA7, EphA8, EphA10, EphB1, EphB2, EphB3, EphB4, and EphB6) was amplified by RT-PCR using tissue-derived total RNA and cloned into a pENTR1A vector (Invitrogen/Life Technologies) having a DNA sequence encoding SEAP protein and histidine tag. Next, the DNA sequence encoding the signal sequence and the extracellular region of each human Eph receptor, SEAP protein, and histidine tag was transferred to a pcDNA3.1_rfcB vector through LR reaction using Gateway System (Invitrogen/Life Technologies) to construct a vector for the expression of a protein of the extracellular region of each human Eph receptor fused with the SEAP protein and the His tag (referred to as “Eph receptor extracellular region-SEAP-His protein”) (this vector is referred to as “Eph receptor extracellular region-SEAP-His protein expression vector”).
(§2) Next, each human Eph receptor extracellular region-SEAP-His protein expression vector was transferred to Expi293F cells (Gibco/Thermo Fisher Scientific) using Expi293 expression system (Gibco/Thermo Fisher Scientific). After incubation (5% CO2, 37° C.) for 5 days, the culture supernatant was recovered and centrifuged at 1500 rpm at room temperature for 5 minutes. The centrifugation supernatant was filtered through a 0.45-μm filter (Merck Millipore).
(§3) Each anti-EphA4 monoclonal humanized antibody obtained in Example 16 was evaluated for its binding activity against each human Eph receptor according to the following steps.
(§4) Each well of a 96-well plate (Nunc) was coated with a rabbit anti-6-His antibody (Bethyl Laboratories). Each well was […] After washing with 0.05% Tween 20/PBS (Nacalai Tesque) three times, the SEAP-His protein of human EphA1, EphA2, EphA3, EphA4, EphA5, EphA6, EphA7, EphA8, EphA10, EphB1, EphB2, EphB3, EphB4, or EphB6 was added (final concentration: 1 nM) to each well and incubated at room temperature for 1 hour. After washing three times, the humanized antibody was added to each well and incubated at room temperature for 1 hour. After washing three times, a horseradish peroxidase-labeled donkey […] IgG antibody (Jackson ImmunoResearch Laboratories) was added thereto and incubated at room temperature for 1 hour. After washing three times, TMB Microwell Peroxidase Substrate System (Kirkegaard & Perry Laboratories (KPL)) was added to each well. After confirmation of moderate color development, an equal amount of a reaction stopping solution (1N H2SO4, Wako Pure Chemical Industries) was added to each well. The absorbance at 450 nm was read using a microplate reader (Thermo Fisher Scientific).

In assay [2] the target is T2, human EphB1 (Homo sapiens, UniProt P54762).
T2 construct: a protein of the extracellular region of each human Eph receptor fused with the SEAP protein and the His tag; made in house; host or cells: Expi293F cells (culture supernatant)
T2 sequence (P54762 18-540 limits assumed): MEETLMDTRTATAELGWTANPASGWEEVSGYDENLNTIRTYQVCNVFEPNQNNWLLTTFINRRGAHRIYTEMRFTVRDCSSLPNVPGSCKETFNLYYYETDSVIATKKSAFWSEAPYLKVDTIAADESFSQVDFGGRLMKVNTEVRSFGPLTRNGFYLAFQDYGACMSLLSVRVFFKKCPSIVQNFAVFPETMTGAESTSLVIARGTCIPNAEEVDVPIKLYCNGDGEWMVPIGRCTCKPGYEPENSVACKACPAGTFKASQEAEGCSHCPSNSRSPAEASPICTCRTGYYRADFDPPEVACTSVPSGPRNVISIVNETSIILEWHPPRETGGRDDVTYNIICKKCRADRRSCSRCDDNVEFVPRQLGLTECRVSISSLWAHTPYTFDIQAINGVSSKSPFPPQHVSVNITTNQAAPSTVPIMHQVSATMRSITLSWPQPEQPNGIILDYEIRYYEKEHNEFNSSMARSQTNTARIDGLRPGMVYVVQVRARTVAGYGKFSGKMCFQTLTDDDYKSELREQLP
The assay is described as above. Type of assay: binding. As to conditions: coated protein 1 nM.
Description: as §1, §2, §3, §4

Assay [3] deals with T3, human EphA4 (binding to human Ephrin A5) (Homo sapiens, UniProt P54764).
T3 construct: made in house; not restated for the human SEAP-His protein
T3 sequence (P54764 20-547): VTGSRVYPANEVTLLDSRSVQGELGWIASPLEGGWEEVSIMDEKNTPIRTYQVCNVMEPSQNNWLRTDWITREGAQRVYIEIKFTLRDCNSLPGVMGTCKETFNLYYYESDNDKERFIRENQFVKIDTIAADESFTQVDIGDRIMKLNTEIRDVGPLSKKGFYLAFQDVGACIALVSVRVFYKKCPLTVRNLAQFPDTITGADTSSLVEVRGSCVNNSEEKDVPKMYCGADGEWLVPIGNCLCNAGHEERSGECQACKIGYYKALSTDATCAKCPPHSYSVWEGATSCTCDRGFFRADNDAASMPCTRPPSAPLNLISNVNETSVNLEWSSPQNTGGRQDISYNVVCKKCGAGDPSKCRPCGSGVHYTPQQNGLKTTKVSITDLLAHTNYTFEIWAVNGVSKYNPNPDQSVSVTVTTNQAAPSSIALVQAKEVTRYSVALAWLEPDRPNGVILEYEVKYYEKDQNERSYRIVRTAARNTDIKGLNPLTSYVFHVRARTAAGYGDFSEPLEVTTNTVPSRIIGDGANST
Kind of assay: Human EphA4-human ligand binding inhibition ELISA of humanized antibodies (biotinylated Ephrin A5-Fc). The settings on record: biotinylated human Ephrin A5-Fc 0.7 nM. Here is the method: Each anti-EphA4 monoclonal humanized antibody obtained in Example 16 was evaluated for its inhibitory activity against the binding between human EphA4 and its human ligand according to the following steps. Each well of a 96-well plate (Nunc) was coated with an anti-alkaline phosphatase antibody (Thermo Fisher Scientific). After incubation overnight at 4° C., each well was blocked with 1% BlockAce (DS Pharma Biomedical) at room temperature for 1 hour. After washing with 0.05% Tween 20/PBS (Thermo Fisher Scientific) three times, the human EphA4 extracellular region-SEAP-His protein obtained by the method of Example 2 was added (final concentration: 10 nM) to each well and incubated at room temperature for 1 hour. After washing three times, a ligand and each serially diluted humanized antibody of antibody A (0, 0.003, 0.01, 0.03, 0.1, 0.3, 1, 3, 10, 30, 100, 300, 1000, and 3000 nM) were added to each well. The ligand used was biotinylated human Ephrin A5-Fc chimera (R&D Systems, final concentration: 0.7 nM). After incubation at room temperature for 1 hour and subsequent washing three times, horseradish peroxidase-labeled streptavidin (GE Healthcare) was added thereto and incubated at room temperature for 1 hour. After washing three times, a TMBZ (3,3′,5,5′-tetramethylbenzidine, Sigma-Aldrich) solution was added to each well and incubated at room temperature for 2 minutes. An equal amount of a reaction stopping solution (1N H2SO4, Wako Pure Chemical Industries) was added to each well. The absorbance at 450 nm was read using a microplate reader (PerkinElmer).

B1: 88 (antibody, V domains shown)
VL: DIQMTQSPSSLSASVGDRVTITCRASENIYRNLAWYQQKPGKAPQLLLYAATNLADGVPSRFSGSGSGTDYTLTISSLQPEDFATYYCQHFWGTPWTFGQGTKVEIK
VH: QVQLVQSGSELKKPGASVKVSCKASGYTFTDYSMHWVRQAPGQGLKWMGWINTETGEPTYAQGFTGRFVFSLDTSVSTAYLQISSLKAEDTAVYYCARIPLYYYGSRYWYFDVWGQGTTVTVSS
modifications: constant regions without entry; synthetic humanized antibody light chain variable region sequence; synthetic humanized antibody heavy chain variable region sequence
Turning to B1, the “hEphA6-SEAP-: absorbance at 450 nm, percentage with respect to hEphA4-SEAP-His as 100%” value in assay [1] is 7.5%. Also, the “hEphB1-SEAP-: absorbance at 450 nm, percentage with respect to hEphA4-SEAP-His as 100%” value in assay [2] stood at 6.1%. The molecule further showed an IC50 in assay [3] of 3.6 nM.

B2: 93 (antibody, V domains shown)
VL: EIVMTQSPATLSVSPGERATLSCRASENIYRNLAWYQQKPGQSPRLLIYAATNLADGIPARFSGSGSGTEYTLTISSLQSEDFAVYYCQHFWGTPWTFGQGTKVEIK
VH: QVQLVQSGSELKKPGASVKVSCKASGYTFTDYSMHWVRQAPGQGLEWMGWINTETGEPTYAQGFTGRFVFSLDTSVSTAYLQISSLKAEDTAVYYCARIPLYYYGSRYWYFDVWGQGTTVTVSS
modifications: constant regions without entry; synthetic humanized antibody light chain variable region sequence; synthetic humanized antibody heavy chain variable region sequence
As to B2, in assay [1], the “hEphA6-SEAP-: absorbance at 450 nm, percentage with respect to hEphA4-SEAP-His as 100%” value is on record as 7.1%. Besides, the “hEphB1-SEAP-: absorbance at 450 nm, percentage with respect to hEphA4-SEAP-His as 100%” value in assay [2] is 5.0%. The same molecule returned an IC50 in assay [3] of 2.5 nM.

B3: 91 (antibody, V domains shown)
VL: DIQMTQSPSSLSASVGDRVTITCRASENIYRNLAWYQQKPGKAPQLLLYAATNLADGVPSRFSGSGSGTDYTLTISSLQPEDFATYYCQHFWGTPWTFGQGTKVEIK
VH: QVQLVQSGSELKKPGASVKVSCKASGYTFTDYSMHWVRQAPGQGLKWMGWINTETGEPTYADDFKGRFVFSLDTSVSTAYLQISSLKAEDTAVYYCARIPLYYYGSRYWYFDVWGQGTTVTVSS
modifications: constant regions without entry; synthetic humanized antibody light chain variable region sequence; synthetic humanized antibody heavy chain variable region sequence
For B3, in assay [1], the “hEphA6-SEAP-: absorbance at 450 nm, percentage with respect to hEphA4-SEAP-His as 100%” value came to 8.8%. Further, the “hEphB1-SEAP-: absorbance at 450 nm, percentage with respect to hEphA4-SEAP-His as 100%” value in assay [2] stood at 6.6%. This molecule registered an IC50 in assay [3] of 4.9 nM.

B4: 90 (antibody, V domains shown)
VL: DIQMTQSPSSLSASVGDRVTITCRASENIYRNLAWYQQKPGKAPQLLLYAATNLADGVPSRFSGSGSGTDYTLTISSLQPEDFATYYCQHFWGTPWTFGQGTKVEIK
VH: QVQLVQSGSELKKPGASVKVSCKASGYTFTDYSMHWVRQAPGQGLEWMGWINTETGEPTYADDFKGRFVFSLDTSVSTAYLQISSLKAEDTAVYYCARIPLYYYGSRYWYFDVWGQGTTVTVSS
modifications: constant regions without entry; synthetic humanized antibody light chain variable region sequence; synthetic humanized antibody heavy chain variable region sequence
As to B4, in assay [1], the “hEphA6-SEAP-: absorbance at 450 nm, percentage with respect to hEphA4-SEAP-His as 100%” value turned out to be 7.6%. For the same molecule, the “hEphB1-SEAP-: absorbance at 450 nm, percentage with respect to hEphA4-SEAP-His as 100%” value in assay [2] came to 4.9%. In assay [3], this molecule returned an IC50 of 4.5 nM.

B5: 89 (antibody, V domains shown)
VL: DIQMTQSPSSLSASVGDRVTITCRASENIYRNLAWYQQKPGKAPQLLLYAATNLADGVPSRFSGSGSGTDYTLTISSLQPEDFATYYCQHFWGTPWTFGQGTKVEIK
VH: QIQLVQSGSELKKPGASVKVSCKASGYTFTDYSMHWVRQAPGQGLKWMGWINTETGEPTYAQGFTGRFVFSLDTSVSTAYLQISSLKAEDTAVYYCARIPLYYYGSRYWYFDVWGQGTTVTVSS
modifications: constant regions without entry; synthetic humanized antibody light chain variable region sequence; synthetic humanized antibody heavy chain variable region sequence
Regarding B5, the “hEphA6-SEAP-: absorbance at 450 nm, percentage with respect to hEphA4-SEAP-His as 100%” value in assay [1] came to 8.4%. Moreover, in assay [2], the “hEphB1-SEAP-: absorbance at 450 nm, percentage with respect to hEphA4-SEAP-His as 100%” value is 5.7%. The same molecule yielded an IC50 in assay [3] of 4.3 nM.

B6: 92 (antibody, V domains shown)
VL: DIQMTQSPSSLSASVGDRVTITCRASENIYRNLAWYQQKPGKAPQLLLYAATNLADGVPSRFSGSGSGTDYTLTISSLQPEDFATYYCQHFWGTPWTFGQGTKVEIK
VH: QIQLVQSGSELKKPGASVKVSCKASGYTFTDYSMHWVRQAPGQGLKWMGWINTETGEPTYADDFKGRFVFSLDTSVSTAYLQISSLKAEDTAVYYCARIPLYYYGSRYWYFDVWGQGTTVTVSS
modifications: constant regions without entry; synthetic humanized antibody light chain variable region sequence; synthetic humanized antibody heavy chain variable region sequence
Take B6: the “hEphA6-SEAP-: absorbance at 450 nm, percentage with respect to hEphA4-SEAP-His as 100%” value in assay [1] came to 9.6%. Besides, the “hEphB1-SEAP-: absorbance at 450 nm, percentage with respect to hEphA4-SEAP-His as 100%” value in assay [2] was found to be 6.9%. In assay [3], this molecule returned an IC50 of 3.5 nM.
